The values below come from patent US12679878B2, “CRF2 receptor agonists and their use in therapy” (SANOFI, priority 2020, dated 2026).

This assay concerns the target human corticotropin-releasing factor 2α (CRF2 α receptor) (human), Q13324. The assay can be described thus: cell-based or functional assay.

Starred links: 1 amine or outer side, 2 acyl side, 3 side chain; linkers in the order of their positions; H or OH if unused. Non-standard residues stand in square brackets, D forms with d. Groups on a side chain read outwards from the residue. No end group written: not given here. *: point of attachment. C20 diacid = O=C(O)CCCCCCCCCCCCCCCCCCC(=O)*; C18 diacid = O=C(O)CCCCCCCCCCCCCCCCC(=O)*; γGlu = O=C(O)[C@H](CCC(=O)[*:2])N[*:1]; Palmitoyl = CCCCCCCCCCCCCCCC(=O)*; AEEA = NCCOCCOCC(=O)O; Aib = CC(C)(N)C(=O)O

Sequence of human corticotropin-releasing factor 2α (CRF2 α receptor) (human), Q13324 (Q13324 20-411): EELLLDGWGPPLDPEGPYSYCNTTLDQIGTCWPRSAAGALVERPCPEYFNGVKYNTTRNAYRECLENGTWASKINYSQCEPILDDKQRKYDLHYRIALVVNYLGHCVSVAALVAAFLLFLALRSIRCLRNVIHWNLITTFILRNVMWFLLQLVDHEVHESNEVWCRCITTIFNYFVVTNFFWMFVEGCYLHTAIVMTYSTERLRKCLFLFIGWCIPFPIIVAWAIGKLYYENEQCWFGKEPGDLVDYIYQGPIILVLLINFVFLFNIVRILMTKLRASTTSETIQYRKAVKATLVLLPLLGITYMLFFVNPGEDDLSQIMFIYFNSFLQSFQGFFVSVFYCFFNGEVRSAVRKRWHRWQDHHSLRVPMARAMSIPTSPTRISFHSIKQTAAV

B1: SEQ ID NO: 181 (peptide)
peptide: IVLSLD[dV]PIKLK([γGlu-C18 diacid])QILLKQERQKKQRQQAEKNKQILAQV-NH2
modifications: N-terminus assumed
SMILES: CC[C@H](C)[C@H](N)C(=O)N[C@H](C(=O)N[C@@H](CC(C)C)C(=O)N[C@@H](CO)C(=O)N[C@@H](CC(C)C)C(=O)N[C@@H](CC(=O)O)C(=O)N[C@@H](C(=O)N1CCC[C@H]1C(=O)N[C@H](C(=O)N[C@@H](CCCCN)C(=O)N[C@@H](CC(C)C)C(=O)N[C@@H](CCCCNC(=O)CC[C@H](NC(=O)CCCCCCCCCCCCCCCCC(=O)O)C(=O)O)C(=O)N[C@@H](CCC(N)=O)C(=O)N[C@H](C(=O)N[C@@H](CC(C)C)C(=O)N[C@@H](CC(C)C)C(=O)N[C@@H](CCCCN)C(=O)N[C@@H](CCC(N)=O)C(=O)N[C@@H](CCC(=O)O)C(=O)N[C@@H](CCCNC(=N)N)C(=O)N[C@@H](CCC(N)=O)C(=O)N[C@@H](CCCCN)C(=O)N[C@@H](CCCCN)C(=O)N[C@@H](CCC(N)=O)C(=O)N[C@@H](CCCNC(=N)N)C(=O)N[C@@H](CCC(N)=O)C(=O)N[C@@H](CCC(N)=O)C(=O)N[C@@H](C)C(=O)N[C@@H](CCC(=O)O)C(=O)N[C@@H](CCCCN)C(=O)N[C@@H](CC(N)=O)C(=O)N[C@@H](CCCCN)C(=O)N[C@@H](CCC(N)=O)C(=O)N[C@H](C(=O)N[C@@H](CC(C)C)C(=O)N[C@@H](C)C(=O)N[C@@H](CCC(N)=O)C(=O)N[C@H](C(N)=O)C(C)C)[C@@H](C)CC)[C@@H](C)CC)[C@@H](C)CC)C(C)C)C(C)C
B1 yielded an EC50 [nM], 0% HSA of 1.18 nM and an EC50 [nM], 0.1% HSA of 15.3 nM.

B2: SEQ ID NO: 21 (peptide)
peptide: IVLSLD[dV]PTKLK([γGlu-Palmitoyl])QKLLKQERQRKE[Aib]EQAEKNKRILERV-NH2
modifications: N-terminus assumed
SMILES: CCCCCCCCCCCCCCCC(=O)N[C@@H](CCC(=O)NCCCC[C@H](NC(=O)[C@H](CC(C)C)NC(=O)[C@H](CCCCN)NC(=O)[C@@H](NC(=O)[C@@H]1CCCN1C(=O)[C@H](NC(=O)[C@H](CC(=O)O)NC(=O)[C@H](CC(C)C)NC(=O)[C@H](CO)NC(=O)[C@H](CC(C)C)NC(=O)[C@@H](NC(=O)[C@@H](N)[C@@H](C)CC)C(C)C)C(C)C)[C@@H](C)O)C(=O)N[C@@H](CCC(N)=O)C(=O)N[C@@H](CCCCN)C(=O)N[C@@H](CC(C)C)C(=O)N[C@@H](CC(C)C)C(=O)N[C@@H](CCCCN)C(=O)N[C@@H](CCC(N)=O)C(=O)N[C@@H](CCC(=O)O)C(=O)N[C@@H](CCCNC(=N)N)C(=O)N[C@@H](CCC(N)=O)C(=O)N[C@@H](CCCNC(=N)N)C(=O)N[C@@H](CCCCN)C(=O)N[C@@H](CCC(=O)O)C(=O)NC(C)(C)C(=O)N[C@@H](CCC(=O)O)C(=O)N[C@@H](CCC(N)=O)C(=O)N[C@@H](C)C(=O)N[C@@H](CCC(=O)O)C(=O)N[C@@H](CCCCN)C(=O)N[C@@H](CC(N)=O)C(=O)N[C@@H](CCCCN)C(=O)N[C@@H](CCCNC(=N)N)C(=O)N[C@H](C(=O)N[C@@H](CC(C)C)C(=O)N[C@@H](CCC(=O)O)C(=O)N[C@@H](CCCNC(=N)N)C(=O)N[C@H](C(N)=O)C(C)C)[C@@H](C)CC)C(=O)O
In turn, B2 gave an EC50 [nM], 0% HSA of 0.02 nM.

B3: SEQ ID NO: 177 (peptide)
peptide: IVLSLD[dV]PIKLK([AEEA-AEEA-γGlu-γGlu-C20 diacid])QILLKQERQKKQRQQAEKNKQILAQV-NH2
modifications: N-terminus assumed
SMILES: CC[C@H](C)[C@H](N)C(=O)N[C@H](C(=O)N[C@@H](CC(C)C)C(=O)N[C@@H](CO)C(=O)N[C@@H](CC(C)C)C(=O)N[C@@H](CC(=O)O)C(=O)N[C@@H](C(=O)N1CCC[C@H]1C(=O)N[C@H](C(=O)N[C@@H](CCCCN)C(=O)N[C@@H](CC(C)C)C(=O)N[C@@H](CCCCNC(=O)COCCOCCNC(=O)COCCOCCNC(=O)CC[C@H](NC(=O)CC[C@H](NC(=O)CCCCCCCCCCCCCCCCCCC(=O)O)C(=O)O)C(=O)O)C(=O)N[C@@H](CCC(N)=O)C(=O)N[C@H](C(=O)N[C@@H](CC(C)C)C(=O)N[C@@H](CC(C)C)C(=O)N[C@@H](CCCCN)C(=O)N[C@@H](CCC(N)=O)C(=O)N[C@@H](CCC(=O)O)C(=O)N[C@@H](CCCNC(=N)N)C(=O)N[C@@H](CCC(N)=O)C(=O)N[C@@H](CCCCN)C(=O)N[C@@H](CCCCN)C(=O)N[C@@H](CCC(N)=O)C(=O)N[C@@H](CCCNC(=N)N)C(=O)N[C@@H](CCC(N)=O)C(=O)N[C@@H](CCC(N)=O)C(=O)N[C@@H](C)C(=O)N[C@@H](CCC(=O)O)C(=O)N[C@@H](CCCCN)C(=O)N[C@@H](CC(N)=O)C(=O)N[C@@H](CCCCN)C(=O)N[C@@H](CCC(N)=O)C(=O)N[C@H](C(=O)N[C@@H](CC(C)C)C(=O)N[C@@H](C)C(=O)N[C@@H](CCC(N)=O)C(=O)N[C@H](C(N)=O)C(C)C)[C@@H](C)CC)[C@@H](C)CC)[C@@H](C)CC)C(C)C)C(C)C
Take B3: the EC50 [nM], 0% HSA is 0.07 nM and the EC50 [nM], 0.1% HSA is 5.19 nM.

B4: SEQ ID NO: 180 (peptide)
peptide: IVLSLD[dV]PIKLK([γGlu-C18 diacid])QILLKQARQK[Aib]QRAQAEKNKRILERV-NH2
modifications: N-terminus assumed
SMILES: CC[C@H](C)[C@H](N)C(=O)N[C@H](C(=O)N[C@@H](CC(C)C)C(=O)N[C@@H](CO)C(=O)N[C@@H](CC(C)C)C(=O)N[C@@H](CC(=O)O)C(=O)N[C@@H](C(=O)N1CCC[C@H]1C(=O)N[C@H](C(=O)N[C@@H](CCCCN)C(=O)N[C@@H](CC(C)C)C(=O)N[C@@H](CCCCNC(=O)CC[C@H](NC(=O)CCCCCCCCCCCCCCCCC(=O)O)C(=O)O)C(=O)N[C@@H](CCC(N)=O)C(=O)N[C@H](C(=O)N[C@@H](CC(C)C)C(=O)N[C@@H](CC(C)C)C(=O)N[C@@H](CCCCN)C(=O)N[C@@H](CCC(N)=O)C(=O)N[C@@H](C)C(=O)N[C@@H](CCCNC(=N)N)C(=O)N[C@@H](CCC(N)=O)C(=O)N[C@@H](CCCCN)C(=O)NC(C)(C)C(=O)N[C@@H](CCC(N)=O)C(=O)N[C@@H](CCCNC(=N)N)C(=O)N[C@@H](C)C(=O)N[C@@H](CCC(N)=O)C(=O)N[C@@H](C)C(=O)N[C@@H](CCC(=O)O)C(=O)N[C@@H](CCCCN)C(=O)N[C@@H](CC(N)=O)C(=O)N[C@@H](CCCCN)C(=O)N[C@@H](CCCNC(=N)N)C(=O)N[C@H](C(=O)N[C@@H](CC(C)C)C(=O)N[C@@H](CCC(=O)O)C(=O)N[C@@H](CCCNC(=N)N)C(=O)N[C@H](C(N)=O)C(C)C)[C@@H](C)CC)[C@@H](C)CC)[C@@H](C)CC)C(C)C)C(C)C
For the molecule B4, the EC50 [nM], 0% HSA turned out to be 0.05 nM and the EC50 [nM], 0.1% HSA turned out to be 1.74 nM.

B5: SEQ ID NO: 179 (peptide)
peptide: IVLSLD[dV]PIKLK([γGlu-C18 diacid])QILLKQERQK[Aib]QREQAEKNKQILAQV-NH2
modifications: N-terminus assumed
SMILES: CC[C@H](C)[C@H](N)C(=O)N[C@H](C(=O)N[C@@H](CC(C)C)C(=O)N[C@@H](CO)C(=O)N[C@@H](CC(C)C)C(=O)N[C@@H](CC(=O)O)C(=O)N[C@@H](C(=O)N1CCC[C@H]1C(=O)N[C@H](C(=O)N[C@@H](CCCCN)C(=O)N[C@@H](CC(C)C)C(=O)N[C@@H](CCCCNC(=O)CC[C@H](NC(=O)CCCCCCCCCCCCCCCCC(=O)O)C(=O)O)C(=O)N[C@@H](CCC(N)=O)C(=O)N[C@H](C(=O)N[C@@H](CC(C)C)C(=O)N[C@@H](CC(C)C)C(=O)N[C@@H](CCCCN)C(=O)N[C@@H](CCC(N)=O)C(=O)N[C@@H](CCC(=O)O)C(=O)N[C@@H](CCCNC(=N)N)C(=O)N[C@@H](CCC(N)=O)C(=O)N[C@@H](CCCCN)C(=O)NC(C)(C)C(=O)N[C@@H](CCC(N)=O)C(=O)N[C@@H](CCCNC(=N)N)C(=O)N[C@@H](CCC(=O)O)C(=O)N[C@@H](CCC(N)=O)C(=O)N[C@@H](C)C(=O)N[C@@H](CCC(=O)O)C(=O)N[C@@H](CCCCN)C(=O)N[C@@H](CC(N)=O)C(=O)N[C@@H](CCCCN)C(=O)N[C@@H](CCC(N)=O)C(=O)N[C@H](C(=O)N[C@@H](CC(C)C)C(=O)N[C@@H](C)C(=O)N[C@@H](CCC(N)=O)C(=O)N[C@H](C(N)=O)C(C)C)[C@@H](C)CC)[C@@H](C)CC)[C@@H](C)CC)C(C)C)C(C)C
Molecule B5 came in with an EC50 [nM], 0% HSA of 0.03 nM and an EC50 [nM], 0.1% HSA of 1.88 nM.

B6: SEQ ID NO: 178 (peptide)
peptide: IVLSLD[dV]PIKLK([AEEA-AEEA-γGlu-C20 diacid])QILLKQERQKKQRQQAEKNKQILAQV-NH2
modifications: N-terminus assumed
SMILES: CC[C@H](C)[C@H](N)C(=O)N[C@H](C(=O)N[C@@H](CC(C)C)C(=O)N[C@@H](CO)C(=O)N[C@@H](CC(C)C)C(=O)N[C@@H](CC(=O)O)C(=O)N[C@@H](C(=O)N1CCC[C@H]1C(=O)N[C@H](C(=O)N[C@@H](CCCCN)C(=O)N[C@@H](CC(C)C)C(=O)N[C@@H](CCCCNC(=O)COCCOCCNC(=O)COCCOCCNC(=O)CC[C@H](NC(=O)CCCCCCCCCCCCCCCCCCC(=O)O)C(=O)O)C(=O)N[C@@H](CCC(N)=O)C(=O)N[C@H](C(=O)N[C@@H](CC(C)C)C(=O)N[C@@H](CC(C)C)C(=O)N[C@@H](CCCCN)C(=O)N[C@@H](CCC(N)=O)C(=O)N[C@@H](CCC(=O)O)C(=O)N[C@@H](CCCNC(=N)N)C(=O)N[C@@H](CCC(N)=O)C(=O)N[C@@H](CCCCN)C(=O)N[C@@H](CCCCN)C(=O)N[C@@H](CCC(N)=O)C(=O)N[C@@H](CCCNC(=N)N)C(=O)N[C@@H](CCC(N)=O)C(=O)N[C@@H](CCC(N)=O)C(=O)N[C@@H](C)C(=O)N[C@@H](CCC(=O)O)C(=O)N[C@@H](CCCCN)C(=O)N[C@@H](CC(N)=O)C(=O)N[C@@H](CCCCN)C(=O)N[C@@H](CCC(N)=O)C(=O)N[C@H](C(=O)N[C@@H](CC(C)C)C(=O)N[C@@H](C)C(=O)N[C@@H](CCC(N)=O)C(=O)N[C@H](C(N)=O)C(C)C)[C@@H](C)CC)[C@@H](C)CC)[C@@H](C)CC)C(C)C)C(C)C
For B6, the EC50 [nM], 0% HSA is 0.04 nM and the EC50 [nM], 0.1% HSA was determined as 3.77 nM.
